The values below are quoted from earlier work in paper PMC11170211.

The series has as its system Asp102. Kind of series: NMR.

With “alpha-lytic protease (not stated in the article (described only as bacterial); Lysobacter enzymogenes from outside knowledge)”, the pKa result was “below 1.5”.
